Data reported in article PMC8543862, “Characterization of a highly xylose tolerant β-xylosidase isolated from high temperature horse manure compost” (BMC Biotechnology, 2021).

Tested on: O=[N+]([O-])c1ccc(O[C@@H]2OC[C@@H](O)[C@H](O)[C@H]2O)cc1
Test: purified protein
Assay type: biochemical, uncultured bacterium
Conditions: 50 mM sodium phosphate pH 6, 37 °C, 20 min, 1-20 mM substrate, kcat unit not given

XylP81 (uncultured bacterium)
Km: 5.3 mM
